Numbering of substitutions follows the chain as printed.
Assays:
[1] = biological target: T1, mouse IgG1 Fc-fused SARS-CoV-2 RBD (SARS-CoV-2, UniProt P0DTC2); test: BLI; conditions: both partners purified
[2] = biological target: T1, mouse IgG1 Fc-fused SARS-CoV-2 RBD; test: BLI; conditions: both partners purified; remark: listed apart in the source

B1: humVHH/WT-Fc (Fc fusion)
chain: EVQLVESGGGLVQPGGSLRLSCAASGRTFSEYAMGWFRQAPGKEREFVATISWSGGSTYYTDSVKGRFTISRDNAKNTVYLQMNSLRPEDTAVYYCAAAGLGTVVSEWDYDYDYWGQGTLVTVSS
notes: also called VHH72_h1-GS-hIgG1hinge-hIgG1Fc; construct 4
Kd [1]: 0.1 nM
koff [1]: 0.00019 s⁻¹
kon [1]: 1.9e+06 M⁻¹ s⁻¹

B2: humVHH_S56A/LALAPG-Fc/Gen2 (Fc fusion)
chain: B1 chain with E1D, S57A
Kd [2]: 0.0408 nM
koff [2]: 6.16e-05 s⁻¹
kon [2]: 1.52e+06 M⁻¹ s⁻¹

B3: (humVHH)2/WT-Fc (Fc fusion)
chain: EVQLVESGGGLVQPGGSLRLSCAASGRTFSEYAMGWFRQAPGKEREFVATISWSGGSTYYTDSVKGRFTISRDNAKNTVYLQMNSLRPEDTAVYYCAAAGLGTVVSEWDYDYDYWGQGTLVTVSSGGGGSGGGGSGGGGSEVQLVESGGGLVQPGGSLRLSCAASGRTFSEYAMGWFRQAPGKEREFVATISWSGGSTYYTDSVKGRFTISRDNAKNTVYLQMNSLRPEDTAVYYCAAAGLGTVVSEWDYDYDYWGQGTLVTVSS
Kd [2]: < 0.001 nM
koff [2]: < 1e-07 s⁻¹
kon [2]: 2.65e+06 M⁻¹ s⁻¹

B4: (humVHH_S56A)2/LALAPG-Fc/Gen2 (Fc fusion)
chain: B3 chain with E1D, S57A, E141D, S197A
Kd [2]: < 0.001 nM
koff [2]: < 1e-07 s⁻¹
kon [2]: 2.48e+06 M⁻¹ s⁻¹

Source: paper PMC9924070 (Science Translational Medicine, 2021)
